B1: CoV2-RBD-1C (printed as CoV2-RBD-QC in Table 1) (ssDNA)
DNA: CAGCACCGACCTTGTGCTTTGGGAGTGCTGGTCCAAGGGCGTTAATGGACA
B2: CoV2-6C3 (ssDNA)
DNA: CGCAGCACCCAAGAACAAGGACTGCTTAGGATTGCGATAGGTTCGG
B3: Aptamer-1 core (ssDNA)
DNA: TCGAGTGGCTTGTTTGTAATGTAGGGTTCCGGTCGTGGGT
B4: R7-02 hybrid (LGKGDFR peptide-DNA) (ssDNA)
DNA: GGAAGAGATGGCGACACGCAATCGTGGGTTGGGGATATAATGGTAAGCTGATCCTGATGG
modifications: 5'-hexynyl clicked to C-terminal azide-lysine tagged LGKGDFR peptide

Key:
[1] = biological target: SARS-CoV-2 spike RBD wild type (SARS-CoV-2, UniProt P0DTC2 SEQ:1-219); assay: flow
Bovine serum albumin = Bovine serum albumin (Bos taurus, UniProt P02769 P02769:25-607); assay: flow; details: tags: Sigma-Aldrich; bead-immobilised
Sequence of Bovine serum albumin (P02769 25-607, one chain of several): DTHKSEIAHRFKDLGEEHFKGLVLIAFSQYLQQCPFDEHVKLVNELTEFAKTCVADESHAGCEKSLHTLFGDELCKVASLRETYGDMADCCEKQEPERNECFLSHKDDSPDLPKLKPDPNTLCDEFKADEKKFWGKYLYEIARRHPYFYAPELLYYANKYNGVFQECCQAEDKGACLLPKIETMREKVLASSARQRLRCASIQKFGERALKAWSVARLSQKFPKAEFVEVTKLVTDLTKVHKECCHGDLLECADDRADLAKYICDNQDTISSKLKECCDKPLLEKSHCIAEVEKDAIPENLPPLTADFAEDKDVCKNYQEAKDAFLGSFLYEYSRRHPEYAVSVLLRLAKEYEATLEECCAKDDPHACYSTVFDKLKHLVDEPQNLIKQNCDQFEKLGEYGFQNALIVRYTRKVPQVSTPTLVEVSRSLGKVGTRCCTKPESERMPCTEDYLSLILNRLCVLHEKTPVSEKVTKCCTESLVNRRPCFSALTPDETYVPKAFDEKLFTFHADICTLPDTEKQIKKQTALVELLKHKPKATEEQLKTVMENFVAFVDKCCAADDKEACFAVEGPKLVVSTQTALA

Binder | binding result [1] | binding result (Bovine serum albumin)
B1 | binds | 
B2 | binds | 
B3 | binds | 
B4 |  | no binding

Source: patent publication US20250376490 (POSTECH RESEARCH AND BUSINESS DEVELOPMENT FOUNDATION, published 2025)
